The text below walks through data of publication PMC3236198.

This assay addresses ΔC SSB (Escherichia coli) (UniProt P0AGE0). The assay can be described thus: SEC. A general note: SEC sorts molecules by how far they enter the pores of the column.

As a reminder, the stoichiometry N is a count of units in the complex or per binding partner. For “ΔC SSB (from UniProt P0AGE0 1-113) (domain or fragment)”, the stoichiometry N came to 4.
